Blank lines part the entries; values can stand above or below the binder they belong to.
Legend:
[1] = biological target: T1, recombinant IL-2 (Acro Biosystems) (UniProt P60568 21-153); test: BLI, biotinylated IL-2 on streptavidin sensors, seven concentrations of construct as analyte
T1 construct: also called Interleukin-2; wild type recombinant IL-2
Source text: (§1) In brief, recombinant IL-2 (Acro Biosystems) was biotinylated using the Pierce Antibody Biotinylation Kit for IP (ThermoFisher) and loaded on Streptavidin sensors. […] Sensorgrams and calculated binding kinetics provided in FIG. 2 illustrate that (i) all anti-IL-2 constructs clearly bind to biotinylated IL-2; (ii) for both anti-IL-2 antibody scFv variants, the VL-VH configuration (referred to as scFv_v2) seems to work best; and (iii) TCB2-based anti-IL-2 constructs tend to associate faster, while NARA1 anti-IL-2 constructs dissociate slower.

[2] = biological target: CD8alpha on CD8 positive T cells of PBMCs (UniProt P01732 22-235, limits assumed); test: cell-based or functional assay
[3] = biological target: T1, recombinant IL-2 (Acro Biosystems); test: BLI (Octet RED96)
Source text: as §1

T1 sequence (P60568 21-153 limits assumed): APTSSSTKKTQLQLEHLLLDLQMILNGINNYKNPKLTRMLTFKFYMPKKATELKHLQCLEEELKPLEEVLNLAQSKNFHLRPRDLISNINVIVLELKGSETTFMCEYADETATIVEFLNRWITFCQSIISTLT
Sequence of CD8alpha on CD8 positive T cells of PBMCs (P01732 22-235 limits assumed): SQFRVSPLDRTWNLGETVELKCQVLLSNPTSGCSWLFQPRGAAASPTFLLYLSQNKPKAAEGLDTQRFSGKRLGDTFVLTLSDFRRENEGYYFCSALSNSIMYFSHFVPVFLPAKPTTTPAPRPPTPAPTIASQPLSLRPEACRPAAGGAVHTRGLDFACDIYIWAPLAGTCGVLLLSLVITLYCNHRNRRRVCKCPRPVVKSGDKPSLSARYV

binding result [1]: binds
B1: anti-IL-2 Ab TCB2 scFv_VH-VL-3*GGGGS-anti-CD8 OKT8 scFv_VH-VL-6*His (bispecific antibody)
chain: EVQLQQSGAELARPGASVKLSCKASGYTFTTYWIQWVKQRPGQGLEWIGAIYPGDGDTRYIQNFKGKATLTADKSSSTAYMQLSSLASEDSAVYYCARSLATRGFYAMDYWGQGTSVTVSSGGGGSGGGGSGGGGSDIVMTQSPASLSMAIGEKVTIRCITSTDIDDDMNWYQQKPGEPPKLLISEGNTLRPGVPSRFSSSGYGTDFVFTIENMLSEDVADYYCLQSDNLPYTFGGGTKLEIKGGGGSGGGGSGGGGSEVQLVQSGAEVKKPGASVKVSCKASGFNIKDTYIHWVRQAPGQGLEWIGRIDPANDNTLYASKFQGRATITADTSTSTAYLELSSLRSEDTAVYYCGRGYGYYVFDHWGQGTLVTVSSGGGGSGGGGSGGGGSDVQITQSPSSLSASVGDRVTITCRTSRSISQYLAWYQEKPGKTNKLLIYSGSTLQSGIPSRFSGSGSGTDFTLTISSLQPEDFATYYCQQVNEFPPTFGQGTKVEIKHHHHHH
notes: Single chain of two scFvs with a C-terminal His6 tag; Leader (residues 1-19) left out

binding result [1]: binds
B2: anti-IL-2 Ab TCB2 scFv_VL-VH-3*GGGGS-anti-CD8 OKT8 scFv_VH-VL-6*His (bispecific antibody)
chain: DIVMTQSPASLSMAIGEKVTIRCITSTDIDDDMNWYQQKPGEPPKLLISEGNTLRPGVPSRFSSSGYGTDFVFTIENMLSEDVADYYCLQSDNLPYTFGGGTKLEIKGGGGSGGGGSGGGGSEVQLQQSGAELARPGASVKLSCKASGYTFTTYWIQWVKQRPGQGLEWIGAIYPGDGDTRYIQNFKGKATLTADKSSSTAYMQLSSLASEDSAVYYCARSLATRGFYAMDYWGQGTSVTVSSGGGGSGGGGSGGGGSEVQLVQSGAEVKKPGASVKVSCKASGFNIKDTYIHWVRQAPGQGLEWIGRIDPANDNTLYASKFQGRATITADTSTSTAYLELSSLRSEDTAVYYCGRGYGYYVFDHWGQGTLVTVSSGGGGSGGGGSGGGGSDVQITQSPSSLSASVGDRVTITCRTSRSISQYLAWYQEKPGKTNKLLIYSGSTLQSGIPSRFSGSGSGTDFTLTISSLQPEDFATYYCQQVNEFPPTFGQGTKVEIKHHHHHH
notes: as for B1

binding result [1]: binds
B3: anti-IL-2 Ab NARA1 scFv_VL-VH-3*GGGGS-anti-CD8 OKT8 scFv_VH-VL-6*His (bispecific antibody)
chain: DIVLTQSPASLAVSLGQRATISCKASQSVDYDGDSYMNWYQQKPGQPPKLLIYAASNLESGIPARFSGSGSGTDFTLNIHPVEEEDAATYYCQQSNEDPYTFGGGTKLEIKGGGGSGGGGSGGGGSQVQLQQSGAELVRPGTSVKVSCKASGYAFTNYLIEWVKQRPGQGLEWIGVINPGSGGTNYNEKFKGKATLTADKSSSTAYMQLSSLTSDDSAVYFCARWRGDGYYAYFDVWGAGTTVTVSSGGGGSGGGGSGGGGSEVQLVQSGAEVKKPGASVKVSCKASGFNIKDTYIHWVRQAPGQGLEWIGRIDPANDNTLYASKFQGRATITADTSTSTAYLELSSLRSEDTAVYYCGRGYGYYVFDHWGQGTLVTVSSGGGGSGGGGSGGGGSDVQITQSPSSLSASVGDRVTITCRTSRSISQYLAWYQEKPGKTNKLLIYSGSTLQSGIPSRFSGSGSGTDFTLTISSLQPEDFATYYCQQVNEFPPTFGQGTKVEIKHHHHHH
notes: as for B1

IL-2 driven STAT5 phosphorylation in CD8+ over Treg cells [2]: 10 fold
B4: 'knob-in-hole' Fc-Anti-IL-2 construct (TCB2 scFv_v2-hFc3 + hFc4-OKT8 scFv) (bispecific antibody)
chain 1: DIVMTQSPASLSMAIGEKVTIRCITSTDIDDDMNWYQQKPGEPPKLLISEGNTLRPGVPSRFSSSGYGTDFVFTIENMLSEDVADYYCLQSDNLPYTFGGGTKLEIKGGGGSGGGGSGGGGSEVQLQQSGAELARPGASVKLSCKASGYTFTTYWIQWVKQRPGQGLEWIGAIYPGDGDTRYIQNFKGKATLTADKSSSTAYMQLSSLASEDSAVYYCARSLATRGFYAMDYWGQGTSVTVSSGGSGGSGGSGGSGGSDKTHTCPPCPAPEAAGGPSVFLFPPKPKDTLMISRTPEVTCVVVDVSHEDPEVKFNWYVDGVEVHNAKTKPREEQYNSTYRVVSVLTVLHQDWLNGKEYKCKVSNKALPAGIEKTISKAKGQPREPQVCTLPPSRDELTKNQVSLSCAVKGFYPSDIAVEWESNGQPENNYKTTPPVLDSDGSFFLVSKLTVDKSRWQQGNVFSCSVMHEALHNHYTQKSLSLSPGK
chain 2: not shown

binding result [3]: binds
B5: anti-IL-2 Ab NARA1 scFv_VH-VL-3*GGGGS-anti-CD8 OKT8 scFv_VH-VL-6*His (bispecific antibody)
chain: QVQLQQSGAELVRPGTSVKVSCKASGYAFTNYLIEWVKQRPGQGLEWIGVINPGSGGTNYNEKFKGKATLTADKSSSTAYMQLSSLTSDDSAVYFCARWRGDGYYAYFDVWGAGTTVTVSSGGGGSGGGGSGGGGSDIVLTQSPASLAVSLGQRATISCKASQSVDYDGDSYMNWYQQKPGQPPKLLIYAASNLESGIPARFSGSGSGTDFTLNIHPVEEEDAATYYCQQSNEDPYTFGGGTKLEIKGGGGSGGGGSGGGGSEVQLVQSGAEVKKPGASVKVSCKASGFNIKDTYIHWVRQAPGQGLEWIGRIDPANDNTLYASKFQGRATITADTSTSTAYLELSSLRSEDTAVYYCGRGYGYYVFDHWGQGTLVTVSSGGGGSGGGGSGGGGSDVQITQSPSSLSASVGDRVTITCRTSRSISQYLAWYQEKPGKTNKLLIYSGSTLQSGIPSRFSGSGSGTDFTLTISSLQPEDFATYYCQQVNEFPPTFGQGTKVEIKHHHHHH
notes: Single chain of two scFvs with a C-terminal His6 tag
